This is an account of results in patent US20260209359A1 (NEXTERA, published 2026).

Test [1] addresses T1, HLA-A*02:01/MAGE-A4^230-239, soluble recombinant biotinylated pHLA (human, UniProt P04439 25-299 at identity 0.94); P61769 21-119, biotinylated).
T1 construct: Empty biotinylated HLA-A2 monomers (Tetramer Shop) loaded with synthetic peptide; also called MAGE-A4 pMHC; MAGE-A4-pHLA
Description: ELISA, biotinylated pHLA on neutravidin, protL-HRP.
Description: Dotted lines indicate the EC₅₀ value (concentration at which half of maximal binding signal is achieved).
Assay 1 described above was performed. ELISA plates were coated with 5 μg/mL NeutrAvidin in PBS and incubated 16 h/4° C. (step (a)) and blocked with 5% skim milk powder in PBST for 1 h/room temperature (RT) (step (c)). […] Bound phage particles were detected with an anti-Fd antibody (anti-M13-HRP (Amersham Biosciences)), whereas bound IgG1 and scDb was detected with HRP conjugated protein L (Genscript) (step (i)). […] Plates were developed with TMB solution and read at 450 nm using a microplate reader (step (k)). Between each layer, the plates were washed 3× with PBST (steps (b), (d), (f), (h), and (j)).

In test [2] the target is T1, HLA-A*02:01/MAGE-A4^230-239, soluble …. Description: SPR, biotinylated pHLA on neutravidin chip, Fab injected (Assay 6-1); Fab format. (In general: Surface plasmon resonance follows binding to a sensor surface in real time, without labels.)
The target is the same in test [3]. Briefly: SPR, biotinylated pHLA on neutravidin chip, Fab injected (Assay 6-1); Fab, not scDb.
The target of test [4] is T2, HLA-A*02:01/MAGE-A4^230-239 displayed on cells (MAGE-A4^230-239 pulsed T2 cells; NCI-H1703, A375, THP1, … (human, UniProt P04439 25-365 at identity 0.94); P61769 21-119). Description: cell-based or functional assay.
Test [5] deals with T2, HLA-A*02:01/MAGE-A4^230-239 displayed …. Description: cell-based or functional assay. The source holds these as a separate data set.
In test [6] the target is T1, HLA-A*02:01/MAGE-A4^230-239, soluble …. Briefly: ELISA, soluble biotinylated pHLA on neutravidin, scDb, protL-HRP. (In general: ELISA stands for enzyme-linked immunosorbent assay.)
Description: ELISA plates were coated with 5 μg/mL NeutrAvidin in PBS and incubated 16 h/4° C. (step (a)) and blocked with 5% skim milk powder in PBST for 1 h/room temperature (RT) (step (c)). […] Bound phage particles were detected with an anti-Fd antibody (anti-M13-HRP (Amersham Biosciences)), whereas bound IgG1 and scDb was detected with HRP conjugated protein L (Genscript) (step (i)). […] Plates were developed with TMB solution and read at 450 nm using a microplate reader (step (k)). Between each layer, the plates were washed 3× with PBST (steps (b), (d), (f), (h), and (j)).
The target is the same in test [7]. Briefly: SPR, biotinylated pHLA on neutravidin chip, scDb without His-tag injected (Assay 6-2).
In test [8] the target is T2, HLA-A*02:01/MAGE-A4^230-239 displayed …. Description: cell-based or functional assay. The source holds these as a separate data set.
Test [9] has the same target. Briefly: cell-based or functional assay. The source holds these as a separate data set.

B1: 1-H02 full length human IgG1 (antibody, V domains shown)
VH: QVQLVQSGAEVKKPGASVKVSCKVSGYTLTELSMHWVRQAPGKGLEWMGGFDPEDGETIYAQKFQGRVTMTEDTSTDTAYMELSSLRSEDTAVYYCATDQGSSWGFYWGQGTLVTVSS
VL: not shown
notes: also called 1-H02 hIgG1; 1-H02 IgG
The term EC50 denotes the midpoint of the concentration-response curve. Consider B1, for which, in test [1], the concentration for a half-maximal effect (EC50) is 1.1 nM.

B2: AM10 Fab (Fab, V domains shown)
VH: QVQLVQSGAEVKKPGASVKVSCKVSGYTLTELSMHWVRQAPGKGLEWMGGFDPEDGETIYAQKFQGRVTMTEDTSTDTAYMELSSLRSEDTAVYYCATDQGASWGFYWGQGTLVTVSS
VL: not shown
notes: Fab format
The Kd is the concentration at which binding is half-saturated. For B2, the dissociation constant (Kd) in test [2] was 325 nM.

B3: AM2 Fab (Fab, V domains shown)
VH: QVQLVQSGAEVKKPGASVKVSCKVSGYTLTELSMHWVRQAPGKGLEWMGGFDPEDGETIYAQKFQGRVTMTEDTSTDTAYMELSSLRSEDTAVYYCATDQGSSWGFYWGQGTLVTVSS
VL: DIRVTQSPSSLSASVGDRVTITCRASQNIMWYLNWYQQKPGKAPKLLIYAASSLQSGVPSRFSGSGSGTDFTLTISSLQPEDFATYYCQQSYSTPYTFGQGTKLEIKR
As to B3, the Kd in test [2] was 86.3 nM.

B4: AMC9 Fab (Fab, V domains shown)
VH: QVQLVQSGAEVKKPGASVKVSCKVSGYTLTELSMHWVRQAPGKGLEWMGGFDPEDGETIYAQKFQGRVTMTEDTSTDTAYMELSSLRSEDTAVYYCATDQGASWGFYWGQGTLVTVSS
VL: DIRVTQSPSSLSASVGDRVTITCRASQNIMWYLNWYQQKPGKAPKLLIYAASSLQSGVPSRFSGSGSGTDFTLTISSLQPEDFATYYCQQSYSTPYTFGQGTKLEIKR
As to B4, the equilibrium dissociation constant (Kd) in test [2] came out at 15.8 nM.

B5: 1-H02 Fab (Fab, V domains shown)
VH: QVQLVQSGAEVKKPGASVKVSCKVSGYTLTELSMHWVRQAPGKGLEWMGGFDPEDGETIYAQKFQGRVTMTEDTSTDTAYMELSSLRSEDTAVYYCATDQGSSWGFYWGQGTLVTVSS
VL: not shown
notes: Fab format
For B5, the dissociation constant (Kd) in [3] came to 1410 nM.

B6: AM15 Fab (Fab, V domains shown)
VH: QVQLVQSGAEVKKPGASVKVSCKVSGYTLTELSMHWVRQAPGKGLEWMGGFDPEDGETIYAQKFQGRVTMTEDTSTDTAYMELSSLRSEDTAVYYCATDQGSSWGFYWGQGTLVTVSS
VL: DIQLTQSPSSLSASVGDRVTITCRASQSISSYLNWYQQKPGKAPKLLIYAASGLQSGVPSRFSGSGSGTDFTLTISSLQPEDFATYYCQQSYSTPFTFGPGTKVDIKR
As to B6, the Kd in test [2] was 148 nM.

B7: AM11 scDb (bispecific antibody)
chain: DIRVTQSPSSLSASVGDRVTITCRADIDIRWYLNWYQQKPGKAPKLLIYAASSLQSGVPSRFSGSGSGTDFTLTISSLQPEDFATYYCQQSYSTPYTFGQGTKLEIKGGGGSEVQLQQSGPELVKPGASMKISCKASGYSFTGYTMNWVKQSHGKNLEWMGLINPYKGVSTYNQKFKDKATLTVDKSSSTAYMELLSLTSEDSAVYYCARSGYYGDSDWYFDVWGAGTTVTVSSGGGGSGGGGSGGGGSDIQMTQTTSSLSASLGDRVTISCRASQDIRNYLNWYQQKPDGTVKLLIYYTSRLHSGVPSKFSGSGSGTDYSLTISNLEQEDIATYFCQQGNTLPWTFAGGTKLEIKGGGGSQVQLVQSGAEVKKPGASVKVSCKVSGYTLTELSMHWVRQAPGKGLEWMGGFDPYLARTIYAQKFQGRVTMTEDTSTDTAYMELSSLRSEDTAVYYCATDQGSSWGFYWGQGTLVTVSS
notes: as m68; without a His-tag in the SPR assay
With B7, the “EC50 vs. NCI-H1703 (pM), T-cell specific killing” value (shortened to “EC50 vs. NCI-H1703 (pM)”) in test [4] amounted to 3.1 pM. Further, the “IFNγ EC50 vs. target positive cells (pM)” value in [5] was determined as 7.2 pM. In [6], the EC50 turned out to be 0.17 nM. Further, in test [7], the dissociation constant Kd was 3.2 nM.

B8: AMC9 scDb (bispecific antibody)
chain: DIRVTQSPSSLSASVGDRVTITCRASQNIMWYLNWYQQKPGKAPKLLIYAASSLQSGVPSRFSGSGSGTDFTLTISSLQPEDFATYYCQQSYSTPYTFGQGTKLEIKGGGGSEVQLQQSGPELVKPGASMKISCKASGYSFTGYTMNWVKQSHGKNLEWMGLINPYKGVSTYNQKFKDKATLTVDKSSSTAYMELLSLTSEDSAVYYCARSGYYGDSDWYFDVWGAGTTVTVSSGGGGSGGGGSGGGGSDIQMTQTTSSLSASLGDRVTISCRASQDIRNYLNWYQQKPDGTVKLLIYYTSRLHSGVPSKFSGSGSGTDYSLTISNLEQEDIATYFCQQGNTLPWTFAGGTKLEIKGGGGSQVQLVQSGAEVKKPGASVKVSCKVSGYTLTELSMHWVRQAPGKGLEWMGGFDPEDGETIYAQKFQGRVTMTEDTSTDTAYMELSSLRSEDTAVYYCATDQGASWGFYWGQGTLVTVSS
notes: as m68
Consider B8, for which, in [4], the “EC50 vs. NCI-H1703 (pM)” value was determined as 1.68 pM. The “EC50 vs. A375 (pM), T-cell specific killing” value in test [8] came out at 2.4 pM. Besides, in test [9], the “EC50 vs. C-33-A (pM), T-cell specific killing” value is 1.33 pM and the “EC50 vs. HuTu80 (pM), T-cell specific killing” value amounted to 6.6 pM. For the same molecule, in test [5], the “IFNγ EC50 vs. target positive cells (pM)” value was found to be 7.6 pM. Further, in test [6], the EC50 came to 0.62 nM.

B9: AM14 scDb (bispecific antibody)
chain: DIQLTQSPSSLSASVGDRVTITCRADIDIRWYLNWYQQKPGKAPKLLIYAASGLQSGVPSRFSGSGSGTDFTLTISSLQPEDFATYYCQQSYSTPFTFGPGTKVDIKGGGGSEVQLQQSGPELVKPGASMKISCKASGYSFTGYTMNWVKQSHGKNLEWMGLINPYKGVSTYNQKFKDKATLTVDKSSSTAYMELLSLTSEDSAVYYCARSGYYGDSDWYFDVWGAGTTVTVSSGGGGSGGGGSGGGGSDIQMTQTTSSLSASLGDRVTISCRASQDIRNYLNWYQQKPDGTVKLLIYYTSRLHSGVPSKFSGSGSGTDYSLTISNLEQEDIATYFCQQGNTLPWTFAGGTKLEIKGGGGSQVQLVQSGAEVKKPGASVKVSCKVSGYTLTELSMHWVRQAPGKGLEWMGGFDPEDGETIYAQKFQGRVTMTEDTSTDTAYMELSSLRSEDTAVYYCATDQGSSWGFYWGQGTLVTVSS
notes: as for B7
As for B9, the “EC50 vs. NCI-H1703 (pM)” value in [4] was determined as 5.1 pM. The “IFNγ EC50 vs. target positive cells (pM)” value in test [5] was 4.1 pM. Moreover, the 50% effective concentration (EC50) in test [6] amounted to 0.1 nM. In addition, in test [7], the dissociation constant (Kd) came out at 0.44 nM.

B10: AM17 scDb (bispecific antibody)
chain: DIRLTQSPSSLSASVGDRVTMTCRASQTVATYVNWYQQKPGRAPKLLMYVTSIRQSEVPSRFSGDGFGTDFTLTINPLQPDDFATYYCQQAYSTPVTFGQGTKLEIKGGGGSEVQLQQSGPELVKPGASMKISCKASGYSFTGYTMNWVKQSHGKNLEWMGLINPYKGVSTYNQKFKDKATLTVDKSSSTAYMELLSLTSEDSAVYYCARSGYYGDSDWYFDVWGAGTTVTVSSGGGGSGGGGSGGGGSDIQMTQTTSSLSASLGDRVTISCRASQDIRNYLNWYQQKPDGTVKLLIYYTSRLHSGVPSKFSGSGSGTDYSLTISNLEQEDIATYFCQQGNTLPWTFAGGTKLEIKGGGGSQVQLVQSGAEVKKPGASVKVSCKVSGYTLTELSMHWVRQAPGKGLEWMGGFDPEDGETIYAQKFQGRVTMTEDTSTDTAYMELSSLRSEDTAVYYCATDQGSSWGFYWGQGTLVTVSS
notes: as for B7
Take B10: in test [4], the “EC50 vs. NCI-H1703 (pM)” value is 2.9 pM. Further, the “IFNγ EC50 vs. target positive cells (pM)” value in [5] is 10.9 pM. Further, the EC50 in [6] came out at 0.3 nM. The Kd in test [7] turned out to be 10.8 nM.
